These are literature values, as cited in article PMC7761212.

For this data set, the target named is rice hemoglobin (Oryza sativa) (UniProt O04986).

Sequence of rice hemoglobin (O04986 whole entry): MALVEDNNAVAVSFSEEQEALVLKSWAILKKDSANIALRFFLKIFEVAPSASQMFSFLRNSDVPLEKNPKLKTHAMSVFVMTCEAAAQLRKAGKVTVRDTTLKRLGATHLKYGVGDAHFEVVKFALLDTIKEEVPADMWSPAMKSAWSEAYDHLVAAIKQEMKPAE

By Kd is commonly meant the concentration at which binding is half-saturated. For the substance rice hemoglobin (from UniProt O04986), the Kd was 80 µM.
